Measurements as given in the nanobody polyreactivity screen of Harvey et al. (2022).

experiment: yeast display, Sf9 membrane polyspecificity reagent, FACS + sequencing; frameworks hold sequencing errors
Method in brief: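 Using colony PCR, genes from sorted yeast display clones were amplified, then sequenced on MiSeq at 2 × 250 and filtered by CDR length. The clones had been stained with 10% biotinylated, detergent-solubilized Sf9 membrane reagent for 1 hour at 4 °C and sorted by FACS into low and high (top ~1%) gates on anti-HA and streptavidin fluorescence. Polyreactivity labels come from the gate of origin.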

Row | Sequence | polyreactivity (PSR sort gate)
1 | QVQLVESGGGLVQAGGSLRLSCAASGRTFVLNAMGWYRQAPGKERELVAAITLGGGSTYADSVKGRFTISRDNAKNTVYLQMNSLKPEDTAVYYCAADFHYPDFEYWGQGTQVTVSS | low polyreactivity
2 | QVQLVESGGGLVQAGGSLRLSCAASGRTFVPNAMGWYRQAPGKERELVAAISWSGDSTYYADSVKGRFTISRDNAKNTVYLQMNSLKPEDTAVYYCAADPFFGVSIGGLKYHFDYWGQGTQVTVSS | low polyreactivity
3 | QVQLVESGGGLVQAGGSLRLSCAASGRTFVPNAMGWYRQAPGKERELVARISSGDSTYYADSVKGRFTISRDNAKNTVYLQMNSLKPEDTAVYYCAASGRQNGYGRRQYYYWGQGTQVTVSS | high polyreactivity
4 | QVQLVESGGGLVQAGGSLRLSCAASGRTFVPYAMGWYRQAPGKERELVAAISARGSSTYYADSVKGRFTISRDNAKNTVYLQMNSLKPEDTAVYYCNAVGARVASATGMEYWGQGTQVTVSS | high polyreactivity
5 | QVQLVESGGGLVQAGGSLRLSCAASGRTFVPYAMGWYRQAPGKERELVAAISSGGDTNYADSVKGRFTISRDNAKNTVYLQMNSLKPEDSAVYYCAKDLTQIYYGDDYWGQGTQVTVSS | low polyreactivity
6 | QVQLVESGGGLVQAGGSLRLSCAASGRTFVRNAMGWYRQAPGKERELVAAISGSAGRTYYADSVKGRFTISRDNAKNTVYLQMNSLKPEDTAVYYCAKDTTVYGYYYWGQGTQVTVSS | high polyreactivity
7 | QVQLVESGGGLVQAGGSLRLSCAASGRTFVRYAMGWYRQAPGKERELVAAISQSGGDTYYADSVKGRFTISRDNAKNTVYLQMNSLKPEDTPVYYCAARSDDVSRYGYWGQGTQVTVSS | low polyreactivity
8 | QVQLVESGGGLVQAGGSLRLSCAASGRTFVRYAMGWYRQAPGKERELVAAISRTGGTTYYADSVKGRFTISRDNAKNTVYLQMNSLKPVDTAVYYCNADPFYKYGYWGQGTQVTVSS | high polyreactivity
9 | QVQLVESGGGLVQAGGSLRLSCAASGRTFVRYAMGWYRQAPGKERELVAAISWSGGSTYYADSVKGRFTISRDNAKNTVYLQKNSLKPEDTAVYYCAAVDETPSSHEEDYWGQGTQVTVSS | high polyreactivity
10 | QVQLVESGGGLVQAGGSLRLSCAASGRTFVRYAMGWYRQAPGKERELVARITSRGTSTYYADSVKGRFTISRDNAKNTVYLQMNSLKPEDTAFYYCNKVRTFRDKSRYDYWGQGTQVTVSS | low polyreactivity
11 | QVQLVESGGGLVQAGGSLRLSCAASGRTFVRYTMGWYRQAPGKERELVAAISGSGSSTFYADSVKGRFTISRDNAKNTVYLQMNSLKPVDTAVYYCAARVRRVARDPYDYWGQGTQVTVSS | high polyreactivity
12 | QVQLVESGGGLVQAGGSLRLSCAASGRTFVSNALGWYRQAPGKERELVAAISSSGGSTYYADSVKGRFTISRDNAKNTVYLQMNSLKPEDPAVYYGATYPLYSKYRYDHWGQGTQVTVSS | high polyreactivity
13 | QVQLVESGGGLVQAGGSLRLSCAASGRTFVSNAMGWYRQAPGKERELVAAISVRGGRTYYADSVKGRFTISRDNAKNTVYLQMNSLKPEDTAVYYCNAVYRTYEYYWGQGTQVTVSS | high polyreactivity
14 | QVQLVESGGGLVQAGGSLRLSCAASGRTFVSNAMGWYRQAPGKERELVAVITGIGGNTYYADSVKGRFTISRDNAKTTVYLQMYSLKPEDTAVYYCAADQIYSFYPVYGSWIYSMYYWGQGTQVTVSS | low polyreactivity
15 | QVQLVESGGGLVQAGGSLRLSCAASGRTFVSYAMGWYRQAPGKERELVAAINGNGASTRYADSVKGRFTISRDNAKNTVYLQMNSLKPEDTAVYYCNTGRRFYGYNYWGQGTQVTVSS | high polyreactivity
16 | QVQLVESGGGLVQAGGSLRLSCAASGRTFVTYAKGWYRQAPGKERELVAAISASGGSTYYADSVKGRFTISRDNAKNTVYLQMNSLNPEDTAVYYCAKTYFLATPYGYWGQGTQVTVSS | low polyreactivity
17 | QVQLVESGGGLVQAGGSLRLSCAASGRTFVTYAMGWYRQAPGKERELVAAISASGGSTYYADSVKGRFTISRDNAKNTVYLQMNSLKPEDTAVYYCAKTYFLATPYGYWGQGTQVTVSS | low polyreactivity
18 | QVQLVESGGGLVQAGGSLRLSCAASGRTFVVYAMGWYRQAPGKERELVAAISRGGSRTYYADSVKGRFTISRDNAKNTVYLQMNSLKPEDTAVYYCAKVIPAYPDSDYNYWGQGTQVTVSS | high polyreactivity
19 | QVQLVESGGGLVQAGGSLRLSCAASGRTFVWNVMGWYRQAPGKEREFVAAISGGSTYYADSVKGRFTISRDNAKNTVYLKMNSLKQEDTPVYYCAAASKLHPRYEYWGQGTQVTVSS | low polyreactivity
20 | QVQLVESGGGLVQAGGSLRLSCAASGRTFVWNVMGWYRQAPGKEREFVAAISGGSTYYADSVKGRFTISRDNAMNTVYLEMNSLKPEDTAVYYCADASKLHPRYEYWGQGTQVTVSS | low polyreactivity
21 | QVQLVESGGGLVQAGGSLRLSCAASGRTFVYNAMGWYRQAPGKERELVAAIDGGGDRTYYADSVKGRFTISRDNAKNTVYLQMNSLKQEDTAVYFCARDPGDTYYYSYPEGDYWGQGTQVTVSS | low polyreactivity
22 | QVQLVESGGGLVQAGGSLRLSCAASGRTFVYNAMGWYRQAPGKERELVAAISFGGGNTYYADSVKGRFTISRDNAKNTVYLQMNSLKPEYTAVYYCAARAGAGPLDYDYWGQGTQVTVSS | low polyreactivity

Row | Sequence | polyreactivity (PSR sort gate)
23 | QVQLVESGGGLVQAGGSLRLSCAASGRTFVYNAMGWYRQAPGKERELVAAISSSGGSTRYADSVKGRFTISRDNAKNTVYLQMNSLKPEDTAVYYCNRLRYSNRYDSWGQGTQVTVSS | high polyreactivity
24 | QVQLVESGGGLVQAGGSLRLSCAASGRTFVYNAMGWYRQAPGKERELVAAITRSGGRTYYADSVKGRFTISRDNAKNTVYLQMNSLKPEDTAVYYCSARISRWYAYGTDIKEGDYWGQGTQVTVSS | low polyreactivity
25 | QVQLVESGGGLVQAGGSLRLSCAASGRTFVYNAMGWYRQAPGKERELVAGITNGGSTNYADSVKGRFTISRDNAKNTVYLQMNSLKPEDTAVYYCAADSRVYPYYFGDFGYWGQGTQVTVSS | low polyreactivity
26 | QVQLVESGGGLVQAGGSLRLSCAASGRTFVYNAMGWYRQAPGKERELVATIRSSGGSTYYADSVKGRFTISRDNAKNTVYLQMNSLKPEDTAVYYCAARWRPYGKFYYWGQGTQVTVSS | high polyreactivity
27 | QVQLVESGGGLVQAGGSLRLSCAASGRTFVYNAMGWYRQAPGKERQLVAGITNGGSTNYADSVKGRFTISRDNAKNTVYLQMNSLKPEDTAVYYCAADSRVYPYYFGHFGFWGQGTQVTVSS | low polyreactivity
28 | QVQLVESGGGLVQAGGSLRLSCAASGRTFVYNAMGWYRQARGKEREFVAAISSGGGTNYADSVKGRFTISRDNAKNTVYLQMNSLQPEDTAVYYCAAGSVSIFRGYRDYYNPKEYDYCGQGTQVTVSS | low polyreactivity
29 | QVQLVESGGGLVQAGGSLRLSCAASGRTFVYYAMGWYRPAPGKERELVAAISSRGGSTYYADSVKGRFTISRDNAKNTVYLQMNSLKPEDTAVYYCAAVKGPERPTSPYDYWGQGTQVTVSS | high polyreactivity
30 | QVQLVESGGGLVQAGGSLRLSCAASGRTFVYYAMGWYRQAPGKERELVAAISSRGGSTYYADTVKGRFTISRDYAKNSVYLQMYSLKPEDTAVYYCAAVIGPERPTSPFDFWGQGTQVTVSS | high polyreactivity
31 | QVQLVESGGGLVQAGGSLRLSCAASGRTFVYYAMGWYRQAPGKERELVAAITSVGSTYYADSVKGRCTISRDNAKNTVYLQMNSLKPEDTAVYSCAKDTWAYPYYWPYDDYWGHGTQVTVSS | low polyreactivity
32 | QVQLVESGGGLVQAGGSLRLSCAASGRTFVYYAMGWYRQAPGKERELVARISSGGSTYYADSVKGRFTISRDNAKNTVYLQMYSLKPEDTAVYYCAADAWYVWEYWWQPEDDYWGQGSQVTVSS | high polyreactivity
33 | QVQLVESGGGLVQAGGSLRLSCAASGRTFVYYAMGWYRQAPGKERELVASISSGGGSTNYADSVKGRFTISRDNAKNTVYLQMNSLKPEDTAVYYCAVDTPRYRYYRTSYDYWGQGTQVTVSS | low polyreactivity
34 | QVQLVESGGGLVQAGGSLRLSCAASGRTFVYYTLGWYRQPPGKERELVARISAGGGITYYADSVKGRFTISRDNAKNTVYLQMNSLNREDTAVYYCAADYWFTYRRPAYEYAYWGQGTQVTVSS | high polyreactivity
35 | QVQLVESGGGLVQAGGSLRLSCAASGRTFWAYAMGWYRQAPGKERELVAAITTSGGSTNYADSVKGRFTISRDNAKNTVYLQMNSLKPEDTAVYYCNADPTYHVVNGVGYLGQGTQVTVSS | low polyreactivity
36 | QVQLVESGGGLVQAGGSLRLSCAASGRTFWAYAMVWYRQAPGKERELVADITNGGSTYYADSVKGRFTISRDNAKNTVYLQMNSLKPEDTAVYYCNALTHWAPASYEYDYWGQGTQVTVSS | low polyreactivity
37 | QVQLVESGGGLVQAGGSLRLSCAASGRTFWFYTMGWYRQAPGKERELVAAISSGGSTNYADSVKGRFTISRDNAKNTVYLQMNSLKPEDTAVYYCNARFPVGPSEDAVWYYPKYDYWGQGTQVTVSS | low polyreactivity
38 | QVQLVESGGGLVQAGGSLRLSCAASGRTFWFYTMGWYRQAPGKERELVADIRRSGGSTYYADSVKGRFTISRDNAKNTVYLQMNSLKPEDTAVYYCASDPRRLAAGYTRYVYWGQGTQVTVSS | high polyreactivity
39 | QVQLVESGGGLVQAGGSLRLSCAASGRTFWGYTMGWYRQAPGKERELVAAITASGGSTRYADSVKGRFTISRDNAKNTVYLQMNSLKPEDTAVYYCASRGQYFTDYYYRGNYWGQGTQVTVSS | high polyreactivity
40 | QVQLVESGGGLVQAGGSLRLSCAASGRTFWGYVMGWYRQAPGKERELVAAISRGDSTYYADSVKGRFTISRDNAKNTVYLQMNSLKPEDTAVYYCAKPGYYVRYGYWGQGTQVTVSS | high polyreactivity
41 | QVQLVESGGGLVQAGGSLRLSCAASGRTFWIYAMGWYRQAPGKERELVAAITGSGGSTYYADSVKGRFTISRDNAKNTVYLQMNSLKPEDTAVYYCNARVPDSYKWSAYYSHDYWGQGTQVTVSS | low polyreactivity
42 | QVQLVESGGGLVQAGGSLRLSCAASGRTFWKYAMGWYRQAPGKERELVAAITASGARTYYADSVKGRFTISRDNAKNTVYLQMNSLKPEDTAVYYCNAGSVSDRQMDYWGQGTQVTVSS | low polyreactivity
43 | QVQLVESGGGLVQAGGSLRLSCAASGRTFWLNAMGWYRQAPGKERELVATISRGGSTNYADSVKGRFTISRDNANNTVYLQMNSLKPEDTAVYYCAARRYYWLRGYNYWGQGTQVTVSS | high polyreactivity
